{"source": "the DeepSol protein solubility set", "data": [{"experiment": "soluble on expression in E. coli; label from the status in PepcDB or PDB records", "values": [{"sequence": "MPLSYSSPSSSEERSDDPSKYDGDFGVPQICFCGKQLELVERLIGDQKKTFLKCPMSGQDDNYHVDKGWDLAVHEQCFCIDKRFGEHRELIQNAFKFGGDSNRLQINQIHAEIEDLKHRLDKKDAEIARLMDALGKK", "soluble on expression in E. coli": "not soluble"}, {"sequence": "MGSDKIHHHHHHMPTVKLTKNITIMTGSPNTLIYDNRVVIDLGGKNSSVDINAEVQLATHGHADHIAGLLKKDAKIRYLPKEDYWSLTLMGRRAMIYGCSSKDSDIFTFDYVKENIESIDIEVRTSEIEVIKLPGHTPGHSGYIVDNVLYAGDAFFGEKVLEGFSVPFYTDFWTALESLNKVKELAKSVNNIVISHGPVYTNKNKMVSILESNIIYAQNLIGKILDMLSNNELTVEEIVVKLKQDLTPSNVLLNSVVVRSILFGLENIEYNVSQKGLVFRRRVH", "soluble on expression in E. coli": "not soluble"}, {"sequence": "PLRLALSKLLVKANQPSAALSPLVHLPPMPSRDYLAMRAALAQKQKQNDIALESYQLLTQREPDNARWWLGLAIQQERALTFTAAINSYNEALGKVGISNQSQAFIRDRLTILKQLESAQ", "soluble on expression in E. coli": "not soluble"}, {"sequence": "MSLSDLDRAIAQLRACRLIPEAQVRELCYKARELLIEEGNVVCVDAPVTICGDIHGQFHDLMELFRVGGDVPDTNYLFMGDFVDRGFYSLESEGHHHHHH", "soluble on expression in E. coli": "not soluble"}, {"sequence": "MSNVCIVYSSTHHGNTEKVLNKIKEKFPETVLIKAGDFNPDDFNRYEAIGFASGIFYFKFAKPVDKLFEQALVGSVQKLFFIYTAGAVNAGFEKTLRKKTEQSGKICMGIFGCKGFDTFGPLKLIGGLNKNSPNEKDFKNAIDFFEKNIINALEHHHHHH", "soluble on expression in E. coli": "soluble"}, {"sequence": "MMINQKNDIPLCAQEFSKLTDPLYIKKICLEKVHDWSRCNEDDVCVNQILSGLTNQLFEVSIKEDTAIEYRITRRHVLFRIYGKDVDALYNPLSEFEVYKTMSKYRIAPLLLNTFDGGRIEEWLYGDPLSIDDLKNKSILVGIANVLGKFHTLSRKRHLPEHWDKTPCVFKMMDRWRLAVSNYKNLDKVTLDINKYIQESHKFLKFIKIYTQIENIANDIVFCHNDLQENNIMNTNKCLRLIDFEYSGYNFLSADIANFFIETTIDYSYNAYPFFIINKKNYISYESRILFVTTYLSKYLDDSTAASDQDIIDQFLEAIEVQALGLHLIWAFWSIIRGYQTKSYNEFDFFLYAKERLKMYDEQKQYLMSKNIIKD", "soluble on expression in E. coli": "not soluble"}, {"sequence": "MTKSELMVRLAEVFAAKNGTHLLAKDVEYSVKVLVDTMTRSLARGQRIEIRGFGSFDLNHRPARIGRNPKTGERVEVPEKHVPHFKPGKELRERVDLALKENAN", "soluble on expression in E. coli": "not soluble"}, {"sequence": "MTHPLYIFDLDETLINGDCAMIWNEFLVDKGIVTTPDFLEEDKRLMTLYSRGLMDMEDYLIFAMSPLKNIPTDQVEILIEECVNERILPLLFPEAKILIHQLKADNVDMIVISASVSFLVKIVAKNIGIKHAIGIDLKEKNGCYTRHILGVPSYREGKVSRLTEWLNGGDKTYSALHFYTDSINDLPLCLYADHTYLVNPCEQLAVYSKKKNWPILAWGSQ", "soluble on expression in E. coli": "not soluble"}, {"sequence": "SMDPPPSETHKLVVVGGGGVGKSALTIQFIQSYFVSDYDPTIEDSYTKICSVDGIPARLDILDTAGQEEFGAMREQYMRAGHGFLLVFAINDRQSFNEVGKLFTQILRVKDRDDFPVVLVGNKADLESQRQVPRSEASAFGASHHVAYFEASAKLRLNVDEAFEQLVRAVRKYQEQELPPS", "soluble on expression in E. coli": "soluble"}, {"sequence": "GPLGSMQLKPMEINPEMLNKVLSRLGVAGQWRFVDVLGLEEESLGSVPAPACALLLLFPLTAQHENFRKKQIEELKGQEVSPKVYFMKQTIGNSCGTMGLIHAVANNQDKLGFEDGSVLKQFLSETEKMSPEDRAKCFEKNEAIQAAHDAVAQEGQCRVDDKVNFHFILFNNVDGHLYELDGRMPFPVNHGASSEDTLLKDAAKVCREFTEREQGEVRFSAVALCKAA", "soluble on expression in E. coli": "soluble"}, {"sequence": "MGSDKIHHHHHHMVIGQKVLLARIPKMGDNYSTYLLDIEGTVCPISFVKETLFPYFTNKVPQLVQQDTRDSPVSNILSQFHIDNKEQLQAHILELVAKDVKDPILKQLQGYVWAHGYESGQIKAPVYADAIDFIKRKKRVFIYSSGSVKAQKLLFGYVQDPNAPAHDSLDLNSYIDGYFDINTSGKKTETQSYANILRDIGAKASEVLFLSDNPLELDAAAGVGIATGLASRPGNAPVPDGQKYQVYKNFETL", "soluble on expression in E. coli": "soluble"}, {"sequence": "MDINGGGATLPQALYQTSGVLTAGFAQYIGVGSGNGKAAFLNNDYTKFQAGVTNKNVHWAGSDSKLSATELSTYASAKQPTWGKLIQVPSVGTSVAIPFNKSGSAAVNLSVQELCGVFSGRINTWDGISGSGRTGPIVVVYRSESSGTTELFTRFLNAKCNAETGNFAVTTTFGTSFSGGLPAGAVAATGSQGVMTALAAGDGRITYMSPDFAAPTLAGLDDATKVARVGKNVATNTQGVSPAAANVSAAIGAVPVPAAADRSNPDAWVPVFGPDNTAGVQPYPTSGYPILGFTNLIFSQCYADATQTTQVRDFFTKHYGASNNNDAAITANAFVPLPTAWKATVRASFLTASNALSIGNTNVCNGIGRPLLEAAHHHHHH", "soluble on expression in E. coli": "soluble"}, {"sequence": "MGSDKIHHHHHHMAILTITKQFGSGGGEIGSAVANLLGYEYIPLKRVFEEAGQAGNRIKKLADEVSKSVPGLWERTDWSFLAFVAFSQSTILNYALQNNIVVMTRGGNMLLKSIPHALRILVTAPFDVRVRRIMEREEISEEIAVMMAKKADREMAVTIQQIYGTNWMDPTEYDQVIDTSKQNWNEIARSLKDSLMAKEKDFTAEAQKILNMKALATYIKVKIMTSPAFITPTLEVEMKGDILVISGVVRNPDQHKRIEEEVKKLAGDRYVEFHIHYRGSWPFRGI", "soluble on expression in E. coli": "not soluble"}, {"sequence": "MAHHHHHHMSGEVDFWSATIAAYQPLQLTSPELTPKLLKRPPFRFIHDIVCSIDARFAAYDHIIPAELRDSAQVDTKEKKIEYLTTLIQYINRIMKVEIDVNPKKIVSGNEPEKTNIFLQYLAAGVGYAQQDKAAQATPAPQQKSAASLASPASPAAASFSTNPAQDNLSLSLASGLCRKKSSSRDPAERRRSHVSVFDEAAKFNRKLSGYSLNLNLDEQRDVRSEGQSIVRMWNELANPQTETKPSHMPQEALETAIKRQIETVKMVQELLSENDRVIDKLEALVI", "soluble on expression in E. coli": "not soluble"}, {"sequence": "VGLIEKQKVQDSDFIEHKEVGLLISHDGIYFKFEPEQLAKHLVEFKSEQDQLIFGGVVQNSDYFFMVTSLGNIITVPIYKTLSNTKTKMNELLAKKPILMEDEKLVLAGIVNPDKME", "soluble on expression in E. coli": "soluble"}, {"sequence": "MNRLPVDDVIPDLLTALEQRNAAVLQAPPGAGKTTRVPLALLDAPWLNGKRIIMLEPRRLAATNAARWMARSLGEEAGATVGYAIRFDRRVSARTRVEVVTEGILTRRLQSDPLLEGVGAVIFDEFHERSIHSDLALALCRDVQAGLREDLRIIVMSA", "soluble on expression in E. coli": "not soluble"}, {"sequence": "AEAQNDPLLPGYSFNAHLVAGLTPIEANGYLDFFIDRPLGMKGYILNLTIRGQGVVKNQGREFVCRPGDILLFPPGEIHHYGRHPEAREWYHQWVYFRPRAYWHEWLNWPSIFANTGFFRPDEAHQPHFSDLFGQIINAGQGEGRYSELLAINLLEQLLLRRMEAINESLHPPMDNR", "soluble on expression in E. coli": "soluble"}, {"sequence": "MGKKKVKFLQKEELRTLLQSLDLQSGINNDWFLLLIAKTGMRYAEALALTPSDFDWVNATVTIDKSWDYKTHRGFKKTKSTASDREIAIDWQIVGQFKPLIQDLPANDPIFIEKTERGTYKKQYNSTMNNYLEAKCKTLTITVISLHALRHTHASVLLAEGVSIHTISARLGHADVGVTQEIYAHVLDELQKKDDQKMMSVLMQIALEHHHHHH", "soluble on expression in E. coli": "not soluble"}, {"sequence": "MGSDKIHHHHHHMSESHLYTYGIIDDNESLALNVDGVAGATRAYTVSYRSLSAVVSDIETTDPERTDAAVEAHNTVLQAVLEHDATRAVVPMSFGMAFKNARTLKGVLRGARRALRSTLTEIAGTVELGVKVLAPGDDTAVDTAAVRSDVTARLSALSVGETENDCFTDRLIINKSYLVEHDTRDAFDAAIDEIDAAHDDLTVRYTGPWPPYNFVDIHIGAEQAQQGGR", "soluble on expression in E. coli": "not soluble"}, {"sequence": "GPGSMQTDFGDATTFSLRPDHKRKFRPNDIRPVVRSLLESRLENEVYKADEMQSISKEIADGVRDRIRSMELERYKIMVHCMIGEQRGQGLRAGCKMFWDSDTDDYFEEVYVTQHLFAVVTVFGLYQY", "soluble on expression in E. coli": "not soluble"}, {"sequence": "YGHNELPAEEGKSLWELVIEQFEDLLVRILLLAACISFVLAW", "soluble on expression in E. coli": "soluble"}, {"sequence": "MDMELTYIYHSGFALSGDGFTVIMDYYRDSEDGQAQADLNRLMDGTFSNQEAGMPEGTVHSELLRRPGKLYVLASHFHPDHFNKEVLQWREQRPDIIYIFSKDILRHRRAQKEDAVWLKKGEEYKDETLSVRAFGSTDVGVSFLLQTGGKKIFHAGDLNNWHWMDESTEAEWKGAEKNFLHELDDLYAYTPEVDVAMFPVDPRLGKEYMRGAGQFVTKIKTHIFVPMHFTPEYAKANAFRDFAEAHGVRFVSLTHRGQKIEIE", "soluble on expression in E. coli": "soluble"}, {"sequence": "MGSDKIHHHHHHMNLLTDIFCQKPKRETAMTTETHYDTQAANSCYYQVQGSEVEIFNFAKTHDLPVLIKGPTGCGKTRFVEFMAESLGRELVTVSCHDDLTAADLLGRHLVSSEGTFWQDGPLTRAVRHGGICYLDEIIEARKDTTVVLHSLSDHRRELHLERTGEVIKAHKDFMLVVSYNPGYQNMMKGLKPSTRQRFVAMSFDYPSPEQEAEILVHEAGITTELAHTLVKLGADIRRLSDIDLKAAVSTRLLIYAAKMMSSGCHAQMACLHCIIEPLTDEKQTIEALTQLVNAHF", "soluble on expression in E. coli": "not soluble"}, {"sequence": "MSSGSRPSSGGGGGGGGASGGAGGGAPGGGGGGIRGFFSKLRKPSDQPNGNQVQVGTRTFEAHELQKLIPQLEEAISRKDAQLRQQQTIVEGHIKRISELEGEVTTLQRECDKLRSVLEQKAQSAASPGGQPPSPSPRTDQLGNDLQQKAVLPADGVQRAKKIAVSAEPTNFENKPATLQHYNKTVGAKQMIRDAVQKNDFLKQLAKEQIIELVNCMYEMRARAGQWVIQEGEPGDRLFVVAEGELQVSREGALLGKMRAGTVMGELAILYNCTRTASVQALTDVQLWVLDRSVFQMITQRLGMERHSQLMNFLTKVSIFQNLSEDRISKMADVMDQDYYDGGHYIIRQGEKGDAFFVINSGQVKVTQQIEGETEPREIRVLNQGDFFGERALLGEEVRTANIIAQAPGVEVLTLDRESFGKLIGDLESLKKDYGDKERLAQVVREPPSPVKIVDDFREEFAQVTLKNVKRLATLGVGGFGRVELVCVNGDKAKTFALKALKKKHIVDTRQQEHIFAERNIMMETSTDWIVKLYKTFRDQKFVYMLLEVCLGGELWTTLRDRGHFDDYTARFYVACVLEGLEYLHRKNIVYRDLKPENCLLANTGYLKLVDFGFAKKLASGRKTWTFCGTPEYVSPEIILNKGHDQAADYWALGIYICELMLGRPPFQASDPMKTYTLILKGVDALEIPNRRIGKTATALVKKLCRDNPGERLGSGSGGVNDIRKHRWFMGFDWEGLRSRTLKPPILPKVSNPADVTNFDNYPPDNDVPPDEFSGWDEGF", "soluble on expression in E. coli": "not soluble"}, {"sequence": "TDQFGMIGLLTFIRAAETDPGMVHLALGSDLTTLGLNLNSPENLYPKFASPWASSPCRPQDIDFHVPSEYLTNIHIRDKLAAIKLGRYGEDLLFYLYYMNGGDVLQLLAAVELFNRDWRYHKEERVWITRAPGMEPTMKTNTYERGTYYFFDCLNWRKVAKEFHLEYDKLEERPHLPSTFNYNPAQQAF", "soluble on expression in E. coli": "soluble"}]}]}
